The values below come from patent publication US20220193196A1, “Methods for Modulating T Cell Activation” (THE WALTER AND ELIZA HALL INSTITUTE OF MEDICAL RESEARCH, priority 2019, published 2022).

“Also recorded” adds a separate entry of the source.

Test [1] deals with naïve mouse CD4 T cells. Nature of the test: Expansion of anti-CD3 activated naïve CD4 T cells (total cell numbers, CTV dilution by flow cytometry). It counts as cell-based. The note with it: for CD4 T cell expansion (total live cell number, dilution of cell division dyes): plate bound anti-CD3 10 μg/ml, titrated doses of soluble recombinant TNF, over 4 days. The protocol:
(§1) T cells were isolated from pooled mouse lymph nodes (inguinal, axillary, brachial, superficial cervical and lumbar) and isolated using MACS negative selection kits for CD4+ or CD8+ T cells (Miltenyi Biotec, Auburn, Calif., USA). T cell purity was confirmed by flow cytometry following isolation. For all experiments, T cell purity was between 82.9-98.2%.
(§2) T cells were cultured in RPMI 1640 medium (Invitrogen) supplemented with non-essential amino acids, 1 mM Sodium-pyruvate, 10 mM HEPES, 100 U/ml Penicillin, 100 μg/ml Streptomycin (Invitrogen), 50 μM 2β-mercaptoethanol, 2 mM L-glutamine (Sigma) and 10% FCS (Sigma). Cells were incubated in a humidified environment at 37° C. in 5% CO2. For division tracking experiments, T cells were labelled with Cell Trace Violet (Invitrogen) according to the manufacturer's instructions. T cells were cultured in flat bottom tissue culture plates.
(§3) The following T cell stimulations were used: TCR was stimulated using 10 μg/ml plate bound anti-CD3 (clone 145-2c11, WEHI antibody facility, Australia) unless a different concentration was specified. Recombinant murine TNF was purchased from R&D Systems (Minneapolis, Minn., USA). Recombinant mIL-2 was purchased from Peprotech. Smac-mimetics were purchased from Sellekchem, MA. The TNFR2 agonist mSTAR was prepared according from HEK293 cells were transiently transfected and cells cultured for 5-7 days, supernatants were purified using anti-Flag affinity chromatography, and the concentrations of the recombinant proteins were determined compared to standard proteins.
Triplicate wells were harvested at each time point. To determine absolute cell numbers, the number of live cells per culture was estimated by reference to a known number of Calibrite beads (Becton Dickinson, San Jose, Calif.), added directly to cell culture before collecting. […]
To examine the role of TNFα in T cell co-stimulation, naïve CD4 T cells were isolated from C57Bl/6 mice and stimulated with a range of recombinant mouse TNF concentrations in the presence of T cell receptor (TCR) crosslinking via plate bound anti-CD3 stimulation. CD4 T cells were labelled with the cell division tracking dye cell trace violet (CTV) and the response measured daily over 96 hours by quantifying T cell expansion using flow cytometry.
To determine if the co-stimulation effect of TNF on T cells could be mimicked using an agonist specific for TNFR2, the response of naïve mouse CD4 T cells activated via TCR in the presence of recombinant mouse TNF, or a TNFR2-specific agonist called mSTAR (Rauert et al., 2010; Chopra et al., 2016) was measured. Naïve CD4 T cells were CTV labelled and the response measured by flow cytometry after stimulation with anti-CD3 in the presence of TNF or mSTAR (FIGS. 16 to 19).
Background: In flow cytometry, cells or beads pass a laser one at a time.

In test [2] the test system is CD8 T cells deficient for TNFR2. As to the kind of experiment: Co-stimulation of anti-CD3 activated CD8 T cells deficient for TNFR2 (dilution of cell tracking dyes). The class given is cell-based, mouse. Particulars: anti-CD3 10 μg/ml, mSTAR 5 ng/ml, 72 hours. The protocol:
Data are representative examples of triplicate cultures.
(§4) All experiments were performed using C57BL/6 mice bred and maintained under specific pathogen-free conditions in the WEHI animal facilities (Parkville, Victoria, Australia) and used between 8-20 weeks of age. All experiments were performed under the approval of the WEHI Animal Ethics Committee. Tnfr1−/− and Tnfr2−/− mice were maintained at the WEHI.
(§5) T cells were isolated from pooled mouse lymph nodes (inguinal, axillary, brachial, superficial cervical and lumbar) and isolated using MACS negative selection kits for CD4+ or CD8+ T cells (Miltenyi Biotec, Auburn, Calif., USA). T cell purity was confirmed by flow cytometry following isolation. For all experiments, T cell purity was between 82.9-98.2%. […]
The following T cell stimulations were used: TCR was stimulated using 10 μg/ml plate bound anti-CD3 (clone 145-2c11, WEHI antibody facility, Australia) unless a different concentration was specified. […] The TNFR2 agonist mSTAR was prepared according from HEK293 cells were transiently transfected and cells cultured for 5-7 days, supernatants were purified using anti-Flag affinity chromatography, and the concentrations of the recombinant proteins were determined compared to standard proteins.

Test [3] has as its system naïve mouse CD8 T cells. As to the kind of experiment: Expansion of anti-CD3 activated naïve CD8 T cells (total cell numbers, CTV dilution by flow cytometry). It counts as cell-based. Particulars: for receptor through which TNF co-stimulates CD8 T cells: CD8 T cells from WT, tnfr1−/− or tnfr2−/− mice, anti-CD3, TNF 5 ng/ml, 4 days. The protocol: as §1, §2, §3
Triplicate wells were harvested at each time point. To determine absolute cell numbers, the number of live cells per culture was estimated by reference to a known number of Calibrite beads (Becton Dickinson, San Jose, Calif.), added directly to cell culture before collecting. Dead cells were identified via uptake of propidium iodide (SigmaAldrich) added to culture before flow cytometry. Flow cytometry was performed on a BD FACS Canto II or Fortessa.
To determine if TNF co-stimulation was restricted to CD4 T cells, or could act on all effector cells from the T cell lineage, co-stimulation of naïve CD8 T cells by TNFα was measured. Naïve CTV labelled CD8 T cells were cultured in the presence of plate bound anti-CD3 with various concentrations of recombinant mouse TNFα and the response measured by flow cytometry.
Naïve CD8 T cells were isolated from WT mice and stimulated with combinations of anti-CD3, TNF and SMAC mimetics. The expansion of CD8 T cells was determined by measuring T cell numbers quantified relative to a known number of quantification beads via flow cytometry.

The subject of test [4] is tnfr1−/− CD4 T cells. As to the kind of experiment: Expansion of anti-CD3 activated CD4 T cells deficient for TNFR1. The note with it: anti-CD3 10 μg/ml, TNF 5 ng/ml, compared with WT CD4 T cells. The class given is cell-based, mouse. The method, then:
as §4, §5
(§6) The following T cell stimulations were used: TCR was stimulated using 10 μg/ml plate bound anti-CD3 (clone 145-2c11, WEHI antibody facility, Australia) unless a different concentration was specified. […] The TNFR2 agonist mSTAR was prepared according from HEK293 cells were transiently transfected and cells cultured for 5-7 days, supernatants were purified using anti-Flag affinity chromatography, and the concentrations of the recombinant proteins were determined compared to standard proteins. […]
(§7) To determine the role of TNF receptors 1 (TNFR1) and 2 (TNFR2) as regulators of TNFα driven T cell co-stimulation, the response of T cells deficient for either TNFR1 or TNFR2 was measured. […]

For test [5], the system named is tnfr2−/− CD4 T cells. Nature of the test: Expansion of anti-CD3 activated CD4 T cells deficient for TNFR2. The note with it: anti-CD3 10 μg/ml, TNF 5 ng/ml. It counts as cell-based, mouse. The method, then: as §4, §5, §6, §7
Test [6] has as its system mouse CD8 T cells. Nature of the test: Cytokine bead array: IFNγ production by TCR activated CD8 T cells. Particulars: anti-CD3 10 μg/ml. The class given is cell-based. The method, then:
Supernatant was removed from T cell cultures at 48 hours and CBAs performed to measure IFNγ production. Data represent mean for duplicate samples. ND=none detected.
as §3
Supernatant from T cell cultures 48 hours after activation as described above were used to measure cytokine production (IL-2, IL-4, IL-6, IFN-γ, TNF, IL-17A and IL-10) using the Th1/Th2/Th17 BD Cytometric Bead Array (CBA) Kit (BD Bioscience). The CBA assay was performed according to manufacturer's instructions.
The effect of TNFR2 co-stimulation with TNF on the differentiation of TCR activated CD8 T cells was determined. […] This effect was synergised by the addition of smac-mimetics or IL-2 (FIG. 23).

The mark [7] stands for this setting: anti-CD3 10 μg/ml, TNF 5 ng/ml or mSTAR 5 ng/ml, 72 hours.

B1: mSTAR: TNFR2-specific agonist TNF mutein (Rauert et al., 2010; Chopra et al., 2016), SEQ ID NO:3, produced in HEK293 cells (protein)
chain: ACGCAAAPDIKDLLSRLEELEGLVSSLREQGGGGSLRSSSQNSSDKPVAHVVANHQVEEQLEWLSQRANALLANGMDLKDNQLVVPADGLYLVYSQVLFKGQGCPDYVLLTHTVSRFAISYQEKVNLLSAVKSPCPKDTPEGAELKPWYEPIYLGGVFQLEKGDQLSAEVNLPKYLNFRESGQVYFGVIALGGGGSLRSSSQNSSDKPVAHVVANHQVEEQLEWLSQRANALLANGMDLKDNQLVVPADGLYLVYSQVLFKGQGCPDYVLLTHTVSRFAISYQEKVNLLSAVKSPCPKDTPEGAELKPWYEPIYLGGVFQLEKGDQLSAEVNLPKYLNFRESGQVYFGVIALGGGGSLRSSSQNSSDKPVAHVVANHQVEEQLEWLSQRANALLANGMDLKDNQLVVPADGLYLVYSQVLFKGQGCPDYVLLTHTVSRFAISYQEKVNLLSAVKSPCPKDTPEGAELKPWYEPIYLGGVFQLEKGDQLSAEVNLPKYLNFRESGQVYFGVIAL
With B1, the “CD4 T cell response (dilution of cell tracking dyes, total cell numbers), TNF compared with mSTAR” value in test [1] (setting [7]) is given as “can mimic TNF mediated CD4 T cell activation”. Besides, in test [2], the “T cell co-stimulation in CD8 T cells deficient for TNFR2” value is on record as “did not induce any T cell co-stimulation; also recorded: does not activate CD8 T cells in the absence of TNFR2”. Moreover, in test [3] (setting [7]), the “CD8 T cell response (dilution of cell division dyes, total cell numbers), mSTAR compared with TNF” value is “can mimic TNF CD8 T cell activation”.

B2: TNF: Recombinant murine TNF purchased from R&D Systems; wild type, not TNFR2-specific (protein)
chain: LRSSSQNSSDKPVAHVVANHQVEEQLEWLSQRANALLANGMDLKDNQLVVPADGLYLVYSQVLFKGQGCPDYVLLTHTVSRFAISYQEKVNLLSAVKSPCPKDTPEGAELKPWYEPIYLGGVFQLEKGDQLSAEVNLPKYLDFAESGQVYFGVIAL
On to B2, for which the “receptor through which TNF co-stimulates CD4 T cells” value in test [1] (CD4 T cells from WT, tnfr1−/− or tnfr2−/− mice, anti-CD3, TNF 5 ng/ml, 4 days) is on record as “act exclusively through TNFR2; also recorded: co-stimulates CD4 T cells through TNFR2”. The “CD4 T cell expansion (total live cell number, dilution of cell division dyes)” value was “promotes CD4 T cell division and expansion” in test [1]; “significantly enhanced CD4 T cell expansion in a dose dependent manner” in test [1] (listed as TNFα). In addition, the “response of tnfr1−/− CD4 T cells to TNF co-stimulation” value in test [4] is “indistinguishable from WT CD4 T cells”. The “co-stimulation of CD4 T cells in the absence of TNFR2” value in test [5] is “no co-stimulation”. Also, the IFNγ production result in test [6] (TNF 5 ng/ml, supernatant at 48 hours) is on record as “significantly increased; also recorded: increases IFNγ production”. Further, the “receptor through which TNF co-stimulates CD8 T cells” value in test [3] is “co-stimulates CD8 T cells through TNFR2”; in test [3] (listed as TNFα), “mediated exclusively by TNFR2”. In addition, the “CD8 T cell expansion (total CD8 T cell numbers, dilution of division tracking dyes)” value in test [3] (plate bound anti-CD3 10 μg/ml, titrated doses of soluble recombinant TNF, over 4 days) was “potent co-stimulator of CD8 T cells; also recorded: potent co-stimulation factor to promote CD8 T cell division and expansion”.

B3: IL-2: Recombinant mIL-2 purchased from Peprotech (protein, UniProt P04351 21-169, looked up)
Interleukin-2: APTSSSTSSSTAEAQQQQQQQQQQQQHLEQLLMDLQELLSRMENYRNLKLPRMLTFKFYLPKQATELKDLQCLEDELGPLRHVLDLTQSKSFQLEDAENFISNIRVTVVKLKGSDNTFECQFDDESATVVDFLRRWIAFCQSIISTSPQ
B3: the “IFNγ production, effect of addition to TNF co-stimulation” value in test [6] (TNF 5 ng/ml with Smac-mimetic or IL-2, supernatant at 48 hours) is reported as “synergised”.
